Reference: patent US20120277286A1, “COMPOSITIONS AND METHODS FOR THE TREATMENT OR PREVENTION OF MITOCHONDRIAL DISEASES” (The Government of the USA, as represented by the Secretary, …, priority 2009, published 2012)

How the values were obtained:
[1] = tested on: M17 human neuroblastoma cells; assay: YFP-Parkin recruitment to mitochondria in M17 cells; type: cell-based; conditions: M17 cells stably transduced with control shRNA (CCCP line) or PINK1 shRNA, 10 μM CCCP, 3 hours
Excerpt: HeLa YFP-Parkin, PINK1+/+ SV40 transformed MEFs cells, PINK1−/− SV40 transformed MEF, M17 neuroblastoma control shRNA, M17 neuroblastoma PINK1, and Mfn1/2−/− MEF cell lines have been described previously (Narendra (2008) J Cell Biol 183: 795-803). PINK1+/+ and PINK1−/− primary MEFs were isolated from embryos using a standard protocol (Gautier (2008) Proc Natl Acad Sci USA 105: 11364-11369). Parkin+/+ and Parkin−/− transformed MEFs were created by isolation of primary cells from embryos of B6.129S4-Park2tm1Shn/J mice (Jackson Labs), using a standard protocol (Gautier (2008) Proc Natl Acad Sci USA 105: 11364-11369), followed by retroviral transduction of SV40 (Applied Biological Materials, Inc.). YFP-Parkin, YFPParkin mutants, mCherry-Parkin, PINK1-YFP, PINK1 KD-YFP, PINK1 Δ1-110-YFP, and Opa3-PINK1 Δ1-110-YFP are in C1 or N1 Clontech vectors. PINK1WT-V5, PINK1 KD-V5, and PINK1 Δ1-156-V5 are in pDest40 vector (Invitrogen). PINK1 patient mutations are in pLenti-V5 vector (Invitrogen). PINK1-myc is in a pCMBTNT vector (Promega).
Confocal microscopy of fixed samples, scoring of Parkin recruitment and Parkininduced mitophagy, and live cell imaging were performed as described previously (Narendra (2008) J Cell Biol 183: 795-803). Experiments in Mfn1/2 null cells were performed as described previously with minor modifications. […]

HeLa cells = assay: Transmission electron microscopy of mitochondria and lysosomes; type: cell-based; conditions: 10 μM CCCP 48 hours
Protocol: HeLa cells transfected with YFP-Parkin for 18 hours were sorted for YFP using FACS. After sorting, 99.7% of cells contained a detectable YFP signal. After overnight culture, cells were treated with 10 μM CCCP for 48 h, fixed with 4% glutaraldehyde in 0.1 N sodium-cacodylate at room temperature for 1 hour, and processed for electron microscopy using a standard protocol. 22 cells expressing Parkin and 22 untransfected cells were randomly selected and imaged at 8,000× magnification by transmission electron microscope (200CX; JEOL Ltd.) and a digital camera system (XR-100; Advanced Microscopy Techniques, Corp.). The area of cytoplasm in each cell was calculated using National Institutes of Health ImageJ.

COXICA65 cybrid cells = assay: COXI immunostaining of cybrid cells; type: cell-based, human; conditions: Parkin-enriched cybrid cells, 67 days without selection, cells without detectable YFP-Parkin
Protocol: Cells for fluorescence microscopy were transfected with Fugene 6 (Roche). Cells were fixed with 4% paraformaldehyde (EMS) in PBS, treated with 0.15% of TritonX-100 and blocked with 10% BSA. Cells were incubated with rabbit anti-Tom20 (1:1000) (Santa Cruz), mouse anti-FLAG (Invitrogen) or mouse anti-COXI (Invitrogen) for 2 hs, washed with 10% BSA for 3 times, incubated with AlexaFluor Goat anti-rabbit or anti-mouse IgG (1:500)(Invitrogen) for 1 h and washed with PBS for 10 minutes 2 times. The samples were stored in PBS and imaged on a Zeiss LSM510 microscope (63×/1.4 Oil DIC Plan Apo objective, 40×/1.3 Oil Plan Neo-Fluar objective).

Molecule	cells with mitochondrial YFP-Parkin [1]	cells with either few or no detectable mitochondrial structures (HeLa cells; electron microscopy)	lysosomes per cell area (HeLa cells; n=22 cells)	mitochondria per area of cytoplasm (HeLa cells; n=22 cells)	COXI completely negative cells (COXICA65 cybrid cells)	COXI positive cells (COXICA65 cybrid cells)
N#CC(C#N)=NNc1cccc(Cl)c1 [CCCP, carbonyl cyanide m-chlorophenylhydrazone]	67.3±3.1%					
YFP-Parkin: YFP-tagged Parkin E3 ligase expressed from a transfected vector (protein, UniProt O60260 1-465, looked up, YFP fusion, YFP-tagged Parkin E3 ligase expressed from a transfected vector) E3 ubiquitin-protein ligase …: MIVFVRFNSSHGFPVEVDSDTSIFQLKEVVAKRQGVPADQLRVIFAGKELRNDWTVQNCDLDQQSIVHIVQRPWRKGQEMNATGGDDPRNAAGGCEREPQSLTRVDLSSSVLPGDSVGLAVILHTDSRKDSPPAGSPAGRSIYNSFYVYCKGPCQRVQPGKLRVQCSTCRQATLTLTQGPSCWDDVLIPNRMSGECQSPHCPGTSAEFFFKCGAHPTSDKETSVALHLIATNSRNITCITCTDVRSPVLVFQCNSRHVICLDCFHLYCVTRLNDRQFVHDPQLGYSLPCVAGCPNSLIKELHHFRILGEEQYNRYQQYGAEECVLQMGGVLCPRPGCGAGLLPEPDQRKVTCEGGNGLGCGFAFCRECKEAYHEGECSAVFEASGTTTQAYRVDERAAEQARWEAASKETIKKTTKPCPRCHVPVEKNGGCMHMKCPQPQCRLEWCWNCGCEWNRVCMGDHWFDV		90%	0.38±0.23 lysosomes/μm 2 cell area	0.074±0.21 mitochondria/μm 2 of cytoplasm	27%	Approximately 73%
